Assay results published in the Human Domainome abundance scans (Beltran et al. 2025).
± gives the uncertainty stated by the source.

B1: Nuclear receptor subfamily 4 group A member 2, residues 260 to 336; numbered along this chain, P43354 (parent)
chain: EGLCAVCGDNAACQHYGVRTCEGCKGFFKRTVQKNAKYVCLANKNCPVDKRRRNRCQYCRFQKCLAVGMVKEVVRTD

Variants of: B1
Assay: abundance fitness (aPCA) (normalised: wild type 0, dead -1); higher = more abundant; growth selection in yeast, the domain comes from the species named
Details: Homo sapiens

Abundance fitness, by site and new letter:
R55: V 0.024 ± 0.04, D -0.065 ± 0.13, W -0.026 ± 0.054, A -0.134 ± 0.081, M -0.089 ± 0.12, S -0.164 ± 0.1, Y 0.038 ± 0.16, E -0.035 ± 0.12, L 0.035 ± 0.06, G -0.023 ± 0.035, C -0.028 ± 0.076
V32: T 0.036 ± 0.34, R 0.256 ± 0.2, K -0.532 ± 0.26, L -0.511 ± 0.41, A 0.211 ± 0.23, C -0.071 ± 0.36, E 0.101 ± 0.45, H -0.224 ± 0.27
Q62: I -0.241 ± 0.23, L -0.137 ± 0.062, N -0.38 ± 0.34, V -0.137 ± 0.048, W -0.345 ± 0.077, E -0.245 ± 0.17, F -0.31 ± 0.14, C -0.153 ± 0.064, D -0.139 ± 0.23, S 0.018 ± 0.12, G -0.297 ± 0.041, R -0.234 ± 0.074, K 0.079 ± 0.28, M 0.079 ± 0.12, A -0.095 ± 0.11
C46: R -1.07 ± 0.22, W -1.03 ± 0.13, V -0.851 ± 0.077, L -0.609 ± 0.1, G -0.897 ± 0.056, E -1.09 ± 0.46, M -0.993 ± 0.35, A -1.16 ± 0.37, S -0.754 ± 0.19
K44: H -0.129 ± 0.25, G -0.052 ± 0.09, L -0.096 ± 0.16, W -0.126 ± 0.17, T -0.028 ± 0.15, V -0.371 ± 0.21, D -0.093 ± 0.16, R -0.03 ± 0.12, M 0.037 ± 0.14, C -0.464 ± 0.21, A -0.265 ± 0.24, Y -0.053 ± 0.37
V39: Y -0.309 ± 0.29, R -0.055 ± 0.097, W 0.017 ± 0.17, S 0.071 ± 0.13, Q -0.244 ± 0.31, G -0.616 ± 0.18, E -0.058 ± 0.16, A -0.107 ± 0.17, L -0.153 ± 0.2, P 0.158 ± 0.23
R51: Y -0.109 ± 0.17, F 0.064 ± 0.096, E 0.082 ± 0.12, C -0.188 ± 0.09, M 0.019 ± 0.3, T 0.166 ± 0.21, W 0.054 ± 0.051, V -0.035 ± 0.041, L 0.042 ± 0.056, G -0.001 ± 0.034
K34: V -0.037 ± 0.23, C -0.033 ± 0.41, G 0.05 ± 0.12, W -0.227 ± 0.49, R -0.243 ± 0.24, S -0.051 ± 0.21
R60: E -0.651 ± 0.18, G -0.648 ± 0.052, W 0.014 ± 0.05, V 0.01 ± 0.044, L 0.047 ± 0.071, M 0.053 ± 0.14, I -0.355 ± 0.3, S -0.033 ± 0.092, C 0.101 ± 0.066, F -0.115 ± 0.12
R53: E -0.034 ± 0.12, F -0.101 ± 0.088, S 0.084 ± 0.084, A 0.078 ± 0.11, D -0.175 ± 0.18, Q 0.172 ± 0.3, L -0.12 ± 0.061, I -0.043 ± 0.22, Y -0.3 ± 0.37, G 0.06 ± 0.037, V 0.019 ± 0.042, M -0.28 ± 0.25, C -0.078 ± 0.061
A42: T 0.002 ± 0.13, G -0.09 ± 0.28, W -0.305 ± 0.23, K 0.629 ± 0.5, S 0.048 ± 0.17, V -0.09 ± 0.14, N -0.452 ± 0.49, R -0.255 ± 0.12, M -0.208 ± 0.43, I -0.183 ± 0.23
Y38: V -0.057 ± 0.39, C -0.026 ± 0.49, H 0.149 ± 0.23
P47: F -0.183 ± 0.1, A -0.033 ± 0.13, I 0.009 ± 0.2, M -0.239 ± 0.48, C -0.184 ± 0.081, D 0.106 ± 0.098, L -0.004 ± 0.063, S -0.076 ± 0.12, G -0.085 ± 0.037, V -0.056 ± 0.049, R -0.102 ± 0.092, E -0.083 ± 0.17, W -0.215 ± 0.062
Q33: R -0.252 ± 0.37, L -0.049 ± 0.25, K -0.035 ± 0.23
T31: V -0.061 ± 0.33, R -0.126 ± 0.22
N43: R -0.014 ± 0.15, A 0.245 ± 0.12, E -0.198 ± 0.16, T -0.505 ± 0.33, F 0.046 ± 0.46, P -0.219 ± 0.21, M -0.173 ± 0.27, G -0.202 ± 0.12, L -0.059 ± 0.14, V -0.014 ± 0.1, I -0.231 ± 0.24, Q -0.283 ± 0.29, S -0.123 ± 0.15, W -0.011 ± 0.16
V48: W -0.258 ± 0.05, C -0.156 ± 0.067, A -0.409 ± 0.17, L -0.175 ± 0.067, G -0.493 ± 0.041, M -0.032 ± 0.27, R -0.449 ± 0.1, F -0.407 ± 0.11, S -0.091 ± 0.17
N54: G 0.06 ± 0.038, P -0.34 ± 0.43, Q -0.032 ± 0.24, C -0.472 ± 0.11, E -0.244 ± 0.24, V -0.094 ± 0.052, L -0.123 ± 0.065, A -0.148 ± 0.14, F -0.143 ± 0.12, S 0.148 ± 0.091, I 0.164 ± 0.43, W -0.015 ± 0.061, T -0.555 ± 0.47, R -0.15 ± 0.11, D 0.135 ± 0.2
Q57: E -0.083 ± 0.11, Y -0.158 ± 0.19, R -0.289 ± 0.11, F -0.177 ± 0.13, S 0.083 ± 0.12, V -0.126 ± 0.054, P 0.187 ± 0.25, M 0.463 ± 0.35, A 0.068 ± 0.097, W -0.28 ± 0.074, L -0.034 ± 0.065
C40: R -0.799 ± 0.4, W -0.761 ± 0.31, Y 0.296 ± 0.32
C59: A -0.549 ± 0.12, F -1.03 ± 0.22, E -0.318 ± 0.29, W -1.33 ± 0.22, R -1.17 ± 0.2, V -0.919 ± 0.096
D49: T 0.013 ± 0.23, Y -0.148 ± 0.27, W -0.21 ± 0.062, C -0.67 ± 0.14, M -0.11 ± 0.37, F -0.204 ± 0.092, A -0.135 ± 0.084, V -0.326 ± 0.049, R -0.22 ± 0.073, G -0.073 ± 0.035, E 0.033 ± 0.097, L -0.222 ± 0.078
K50: R -0.193 ± 0.082, G -0.045 ± 0.037, C -0.115 ± 0.074, S -0.001 ± 0.097, E 0.175 ± 0.15, P 0.356 ± 0.29, T 0.102 ± 0.24, F -0.055 ± 0.094, W -0.031 ± 0.057, L -0.155 ± 0.073, D -0.215 ± 0.17, Y 0.024 ± 0.13, A -0.098 ± 0.088
C56: W -0.908 ± 0.097, S -0.667 ± 0.23, F -1.21 ± 0.38, D -0.707 ± 0.37, A -0.941 ± 0.28, V -1.05 ± 0.11, R -1.06 ± 0.19, E -0.894 ± 0.33, G -1.05 ± 0.073, L -1.09 ± 0.23
A36: K -0.291 ± 0.26, S -0.095 ± 0.1, G -0.093 ± 0.071, D -0.019 ± 0.1, E -0.001 ± 0.11, C -0.017 ± 0.14, L 0.017 ± 0.097, W -0.057 ± 0.12, P -0.081 ± 0.3, M -0.093 ± 0.24, Q -0.085 ± 0.24, F 0.458 ± 0.19, V -0.023 ± 0.079
L41: S -0.072 ± 0.16, T -0.08 ± 0.22, Q -0.248 ± 0.27, P 0.241 ± 0.27, E 0.064 ± 0.17, A -0.025 ± 0.29, V 0.022 ± 0.15, G -0.109 ± 0.11, R -0.064 ± 0.095, H -0.069 ± 0.37, M 0.039 ± 0.11, K -0.167 ± 0.25
K63: L -0.354 ± 0.088, D -0.52 ± 0.29, R -0.206 ± 0.072, T 0.038 ± 0.15, A -0.048 ± 0.095, E -0.898 ± 0.27, M -0.025 ± 0.18, G -0.559 ± 0.044, W -0.569 ± 0.078, V -0.304 ± 0.046
Y58: F 0.051 ± 0.11, W -0.063 ± 0.052, C -0.173 ± 0.064, G -0.298 ± 0.041, S 0.129 ± 0.078, V -0.761 ± 0.075, E -0.055 ± 0.16, A 0.041 ± 0.085, L -0.441 ± 0.079, R -0.345 ± 0.12, D -0.123 ± 0.17
F61: V -0.401 ± 0.046, T -0.377 ± 0.21, Q -0.187 ± 0.27, D -0.745 ± 0.24, C -0.701 ± 0.099, I 0.007 ± 0.26, G -1.01 ± 0.083, S -0.235 ± 0.21, R -0.989 ± 0.19, L 0.057 ± 0.07, W -0.05 ± 0.059, M 0.072 ± 0.13
K37: E -0.177 ± 0.18, F -0.362 ± 0.48, R -0.099 ± 0.081, V -0.118 ± 0.1, Y 0.019 ± 0.21, S -0.213 ± 0.13, M 0.11 ± 0.16, T 0.067 ± 0.15, G -0.07 ± 0.073, P -0.008 ± 0.16, C -0.134 ± 0.25, Q -0.041 ± 0.17, H -0.124 ± 0.18, A -0.197 ± 0.11, D -0.07 ± 0.27
R52: D 0.002 ± 0.12, S -0.31 ± 0.14, E 0 ± 0.094, C -0.061 ± 0.071, A 0.025 ± 0.083, Y 0.204 ± 0.47, W 0.01 ± 0.063, F -0.08 ± 0.094, K 0.041 ± 0.13, L -0.043 ± 0.057, V -0.021 ± 0.043, G 0.065 ± 0.036, M -0.021 ± 0.1
N35: Q -0.081 ± 0.1, D 0.118 ± 0.12, Y -0.139 ± 0.15, K 0.033 ± 0.12, F -0.089 ± 0.35, V -0.487 ± 0.12, S -0.198 ± 0.085, H -0.13 ± 0.14, L -0.085 ± 0.087, T -0.137 ± 0.13, M -0.173 ± 0.11, A 0.011 ± 0.068, R -0.136 ± 0.088, C 0.141 ± 0.22, W -0.407 ± 0.12, E 0.071 ± 0.094, I -0.127 ± 0.27
C64: F -0.848 ± 0.23, A -0.163 ± 0.11, G -0.277 ± 0.035
